Data published in article PMC2603141 (Virology, 2008).

Biological target: the molecule itself
Assay: reducing and non-reducing SDS-PAGE

B1: PIV 5 HN stalk region, HN(stalk) (domain or fragment)
chain: SPSSGLGSITDLLNNILSVANQIIYNSAVALPLQLDTLESTLLTAIKSLQTSDKLEQNCSWSAAL
modifications: also: inter-chain disulfide, covalent dimer
- stoichiometry N: 2
